# Measurements as given in IntAct's records for PubMed 38225382.
# Assays:
# [1] = biological target: tri37_human TRIM37 (UniProt O94972)
# [2] = biological target: pex3_human PEX3 (UniProt P56589)
# Chain of pex3_human PEX3 (P56589 whole entry): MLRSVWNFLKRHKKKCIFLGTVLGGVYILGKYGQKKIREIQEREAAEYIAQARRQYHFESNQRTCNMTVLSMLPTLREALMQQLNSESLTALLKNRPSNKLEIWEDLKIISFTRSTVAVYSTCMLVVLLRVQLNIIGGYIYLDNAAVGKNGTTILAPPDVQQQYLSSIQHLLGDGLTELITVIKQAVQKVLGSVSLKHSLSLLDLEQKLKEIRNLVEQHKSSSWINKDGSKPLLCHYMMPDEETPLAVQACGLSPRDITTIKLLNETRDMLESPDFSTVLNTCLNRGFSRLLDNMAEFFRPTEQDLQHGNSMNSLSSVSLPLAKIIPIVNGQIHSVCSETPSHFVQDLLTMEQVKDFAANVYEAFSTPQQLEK
# Chain of tri37_human TRIM37 (O94972 whole entry): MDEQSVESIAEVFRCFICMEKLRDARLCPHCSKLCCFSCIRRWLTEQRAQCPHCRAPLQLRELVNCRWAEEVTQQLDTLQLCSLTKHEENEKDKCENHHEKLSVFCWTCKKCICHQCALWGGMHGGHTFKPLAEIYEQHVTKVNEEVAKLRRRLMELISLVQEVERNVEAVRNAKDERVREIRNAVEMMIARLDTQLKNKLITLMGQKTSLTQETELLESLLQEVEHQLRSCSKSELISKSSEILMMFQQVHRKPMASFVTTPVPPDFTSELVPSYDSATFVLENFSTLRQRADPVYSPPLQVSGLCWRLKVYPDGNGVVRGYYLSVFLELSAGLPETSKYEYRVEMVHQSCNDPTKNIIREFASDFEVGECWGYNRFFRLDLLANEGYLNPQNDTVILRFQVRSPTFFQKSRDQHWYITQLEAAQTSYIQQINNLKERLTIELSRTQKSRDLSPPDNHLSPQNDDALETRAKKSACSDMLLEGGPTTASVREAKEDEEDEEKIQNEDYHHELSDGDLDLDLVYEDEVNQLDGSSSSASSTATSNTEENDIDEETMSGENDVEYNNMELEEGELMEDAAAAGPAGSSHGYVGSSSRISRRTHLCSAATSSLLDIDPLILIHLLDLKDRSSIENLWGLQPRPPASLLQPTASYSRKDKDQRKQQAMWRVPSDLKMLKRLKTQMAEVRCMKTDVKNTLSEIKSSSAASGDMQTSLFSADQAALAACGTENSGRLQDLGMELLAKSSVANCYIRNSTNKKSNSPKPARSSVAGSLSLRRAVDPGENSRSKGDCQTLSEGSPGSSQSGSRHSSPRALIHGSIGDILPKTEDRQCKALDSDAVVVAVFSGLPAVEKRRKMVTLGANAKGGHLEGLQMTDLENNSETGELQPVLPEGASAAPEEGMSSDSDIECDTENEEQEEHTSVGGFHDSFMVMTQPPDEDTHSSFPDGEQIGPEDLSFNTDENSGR
# Chain of Peroxisomal membrane protein PEX16 (Homo sapiens), Q9Y5Y5 K169A (Q9Y5Y5 whole entry K169A): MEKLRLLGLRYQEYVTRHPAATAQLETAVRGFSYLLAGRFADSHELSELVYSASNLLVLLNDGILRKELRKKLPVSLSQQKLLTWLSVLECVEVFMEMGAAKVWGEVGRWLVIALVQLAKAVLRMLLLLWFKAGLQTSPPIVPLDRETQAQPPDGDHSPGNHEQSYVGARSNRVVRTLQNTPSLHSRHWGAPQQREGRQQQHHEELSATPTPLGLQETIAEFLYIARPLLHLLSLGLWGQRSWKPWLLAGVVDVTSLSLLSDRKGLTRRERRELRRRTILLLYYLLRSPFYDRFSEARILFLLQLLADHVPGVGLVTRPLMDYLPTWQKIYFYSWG
# Chain of Peroxisomal membrane protein PEX16 (Homo sapiens), Q9Y5Y5 W189G (Q9Y5Y5 whole entry W189G): as the sequence (Q9Y5Y5 whole entry K169A) above, with A169K, W189G counted along it
Substance,effect of a mutation on the interaction [1],effect of a mutation on the interaction [2]
"Bifunctional polynucleotide phosphatase/kinase (Homo sapiens), Q96T60 S114D",with no effect,
"Peroxisomal membrane protein PEX16 (Homo sapiens), Q9Y5Y5 K169A",,with no effect
"Peroxisomal membrane protein PEX16 (Homo sapiens), Q9Y5Y5 W189G",,with no effect
"Bifunctional polynucleotide phosphatase/kinase (Homo sapiens), Q96T60 P112R",with no effect,
